In publication PMC5003418:

Tests used:
[1] = target: HIV-1 integrase K264A/K266A, recombinant, 6xHis-tagged (HIV-1); assay: SEC
[2] = target: HIV-1 integrase R269A/K273A, recombinant, 6xHis-tagged (HIV-1); assay: SEC

| Substance | stoichiometry N [1] | stoichiometry N [2] |
| --- | --- | --- |
| HIV-1 integrase K264A/K266A, recombinant, 6xHis-tagged (enzyme) | 4 |  |
| HIV-1 integrase R269A/K273A, recombinant, 6xHis-tagged (enzyme) |  | 4 |
